Measurements reported in patent US20210163614A1 (GMAX BIOPHARM, published 2021).

T1: human APJ (apelin receptor) (human, UniProt P35414 1-380)
T1 construct: Expressed on the membrane of stably transfected CHO-DHFR- cells; also called hAPJ; APJ receptor
T1 sequence: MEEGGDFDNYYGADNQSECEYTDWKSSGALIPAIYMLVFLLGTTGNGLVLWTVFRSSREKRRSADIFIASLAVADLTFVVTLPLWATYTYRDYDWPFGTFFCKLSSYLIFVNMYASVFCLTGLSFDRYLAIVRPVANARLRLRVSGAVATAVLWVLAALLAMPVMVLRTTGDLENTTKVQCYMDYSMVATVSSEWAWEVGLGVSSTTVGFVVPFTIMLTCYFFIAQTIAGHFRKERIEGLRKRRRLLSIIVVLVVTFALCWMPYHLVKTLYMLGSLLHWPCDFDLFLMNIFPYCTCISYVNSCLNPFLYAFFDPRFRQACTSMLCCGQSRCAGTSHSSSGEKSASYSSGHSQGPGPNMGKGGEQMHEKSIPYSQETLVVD


Key:
[1] = molecular target: T1, human APJ (apelin receptor); assay: cell-based or functional assay
[2] = molecular target: T1, human APJ (apelin receptor); assay: FACS on CHO-DHFR-hAPJ cells, antibody at 500 nM and 4 nM, blank CHO-DHFR- cells as negative control
Description: PBS containing EDTA was used to detach and collect 10⁵ CHO-DHFR-hAPJ cells into 1.5 mL EP tubes. The supernatant was removed after centrifugation. The negative control sample was resuspended with a FACS loading buffer (PBS, 2% FBS). For the positive control, 200 μL antibody supernatant with certain concentration was added to resuspend cells and then incubated at room temperature; the cells were then centrifuged at 1500 rpm to remove the supernatant, washed with a FACS loading buffer and centrifuged again. The cells were resuspended followed by addition (200 μL/well) of a FITC labeled goat anti-mouse fluorescent secondary antibody at 1:50 dilution and incubated at room temperature for 30 min in the dark. Supernatant was removed after centrifugation, cells were washed with FACS loading buffer, centrifuged again and resuspended with the loading buffer for analysis.

EC50, reporter gene assay, activation of Elabela/APJ signaling pathway [1] | binding result [2] | Binder
3.61 nM | – | fusion protein of hAPJ antibody L5H5 and Linker2-Elabela-11 (protein, not shown: a dimerising Fc or GST; large carriers) heavy (part 1 of 2): EIQLVESGGGLVKPGGSLRLSCAASGFTFSSYAMSWVRQAPGKGLEWVASISSGGSIYLPDSLKGRFTISRDNAKNSLYLQMNSLRAEDTAVYYCTRGRGNSSAWFAYWGQGTLVTVSS heavy (part 2 of 2): GGGGSGGGGSCMPLHSRVPFP light: DVLMTQSPLSLPVTLGQPASISCRSDQSLVHRTGNTHLDWYQQRPGQSPRLLIYKVSNRFSGVPDRFSGSGSGTDFTLKISRVEAEDVGVYYCFQASHIPFTFGQGTKVEIKR
– | binds | hAPJ antibody L4H4 (antibody, V domains shown, also called mouse ascites antibody L4H4) VH: EIKLVESGGGLVKPRGSLKLSCAASGFTFSSYAMSWVRQTPEKRLEWVASISSGGSIYLPDSLKGRFTISRDNAWNILYLQMNSLKSEDTAMYYCTRGRGNSSAWFAYWGQGTLVTVSA VL: DVLMTQTPLSLPVSLGDQASISCRSDQSLVHRTGNTHLDWYLQKPGQSPKLLIYKVSNRFSGVPDRFSGSGSGTDFTLKISRVEAEDLGVYYCFQASHIPFTFGSGTKLEIKR
4.95 nM | – | fusion protein of hAPJ antibody L5H5 and Linker2-EA1 (protein, not shown: a dimerising Fc or GST; large carriers) heavy (part 1 of 2): EIQLVESGGGLVKPGGSLRLSCAASGFTFSSYAMSWVRQAPGKGLEWVASISSGGSIYLPDSLKGRFTISRDNAKNSLYLQMNSLRAEDTAVYYCTRGRGNSSAWFAYWGQGTLVTVSS heavy (part 2 of 2): GGGGSGGGGSQRPRLHSRVPFP light: DVLMTQSPLSLPVTLGQPASISCRSDQSLVHRTGNTHLDWYQQRPGQSPRLLIYKVSNRFSGVPDRFSGSGSGTDFTLKISRVEAEDVGVYYCFQASHIPFTFGQGTKVEIKR
2.55 nM | – | fusion protein of hAPJ antibody L5H5 and Linker2-EA5 (protein, not shown: a dimerising Fc or GST; large carriers) heavy (part 1 of 2): EIQLVESGGGLVKPGGSLRLSCAASGFTFSSYAMSWVRQAPGKGLEWVASISSGGSIYLPDSLKGRFTISRDNAKNSLYLQMNSLRAEDTAVYYCTRGRGNSSAWFAYWGQGTLVTVSS heavy (part 2 of 2): GGGGSGGGGSQRRCMPLHSRVPAP light: DVLMTQSPLSLPVTLGQPASISCRSDQSLVHRTGNTHLDWYQQRPGQSPRLLIYKVSNRFSGVPDRFSGSGSGTDFTLKISRVEAEDVGVYYCFQASHIPFTFGQGTKVEIKR
20.3 nM | – | fusion protein of hAPJ antibody L5H5 and Linker2-EA3 (protein, not shown: a dimerising Fc or GST; large carriers) heavy (part 1 of 2): EIQLVESGGGLVKPGGSLRLSCAASGFTFSSYAMSWVRQAPGKGLEWVASISSGGSIYLPDSLKGRFTISRDNAKNSLYLQMNSLRAEDTAVYYCTRGRGNSSAWFAYWGQGTLVTVSS heavy (part 2 of 2): GGGGSGGGGSQRRCMPLHSRVPMPF light: DVLMTQSPLSLPVTLGQPASISCRSDQSLVHRTGNTHLDWYQQRPGQSPRLLIYKVSNRFSGVPDRFSGSGSGTDFTLKISRVEAEDVGVYYCFQASHIPFTFGQGTKVEIKR
5.4 nM | – | fusion protein of hAPJ antibody L5H5 and Linker2-EA4 (protein, not shown: a dimerising Fc or GST; large carriers) heavy (part 1 of 2): EIQLVESGGGLVKPGGSLRLSCAASGFTFSSYAMSWVRQAPGKGLEWVASISSGGSIYLPDSLKGRFTISRDNAKNSLYLQMNSLRAEDTAVYYCTRGRGNSSAWFAYWGQGTLVTVSS heavy (part 2 of 2): GGGGSGGGGSQRRCLSHKGPMPF light: DVLMTQSPLSLPVTLGQPASISCRSDQSLVHRTGNTHLDWYQQRPGQSPRLLIYKVSNRFSGVPDRFSGSGSGTDFTLKISRVEAEDVGVYYCFQASHIPFTFGQGTKVEIKR
2.16 nM | – | fusion protein of hAPJ antibody L5H5 and Linker2-EA2 (protein, not shown: a dimerising Fc or GST; large carriers) heavy (part 1 of 2): EIQLVESGGGLVKPGGSLRLSCAASGFTFSSYAMSWVRQAPGKGLEWVASISSGGSIYLPDSLKGRFTISRDNAKNSLYLQMNSLRAEDTAVYYCTRGRGNSSAWFAYWGQGTLVTVSS heavy (part 2 of 2): GGGGSGGGGSQRPRLSHKGPFP light: DVLMTQSPLSLPVTLGQPASISCRSDQSLVHRTGNTHLDWYQQRPGQSPRLLIYKVSNRFSGVPDRFSGSGSGTDFTLKISRVEAEDVGVYYCFQASHIPFTFGQGTKVEIKR
– | binds | hAPJ antibody L1H1 (antibody, V domains shown, also called mouse ascites antibody L1H1) VH: EVQLIETGGGLVQPTGSLQLSCAASGFPFNINAMNWVRQAPGKGLEWVARIRSKSNNYATYYADSVKDRFTISRDDSQSILYLQMNNLKTEDSAMYFCVRGPYLYAMDYWGQGTSVTVSS VL: DIQMNQSPSSLSASLGDTITITCHASQNIHVWLSWYQQKPGNIPKLLIYKASNLHTGVPSRFSGSGSGTGFTLTISSLQPEDIATYYCQQGHSYPLTFGGGTKLEIKR
